Results as given in patent US20240092836A1 (GENEFRONTIER, published 2024).
Bridges are numbered along the chain shown (N, C = ends). Where no end group is shown, it is not given here.

T1: Orencia
T1 sequence (chain, INN chains, looked up, looked up): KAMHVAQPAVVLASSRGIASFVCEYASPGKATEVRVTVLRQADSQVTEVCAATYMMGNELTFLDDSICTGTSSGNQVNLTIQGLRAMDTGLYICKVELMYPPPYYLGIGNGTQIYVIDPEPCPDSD

T2: CTLA4 of the CTLA4:B7-1[Biotinylated] Inhibitor Screening Assay Kit (BPS Bioscience) (human, UniProt P16410 37-162, limits assumed)
T2 construct: Kit protein
T2 sequence: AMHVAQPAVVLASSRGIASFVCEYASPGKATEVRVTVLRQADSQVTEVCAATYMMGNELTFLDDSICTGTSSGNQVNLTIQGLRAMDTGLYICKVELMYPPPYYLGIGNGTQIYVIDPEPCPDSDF

T3: CTLA-4 expressed on the cell surface of CHO cells (Homo sapiens (Human), UniProt P16410 36-223)
T3 construct: also called CTLA-4 with its natural structure
T3 sequence: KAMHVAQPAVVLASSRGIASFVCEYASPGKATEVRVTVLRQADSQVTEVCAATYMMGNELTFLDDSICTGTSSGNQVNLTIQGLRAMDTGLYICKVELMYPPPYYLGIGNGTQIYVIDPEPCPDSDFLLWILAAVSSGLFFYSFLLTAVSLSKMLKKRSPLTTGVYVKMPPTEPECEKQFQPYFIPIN


Experiments:
Orencia [1] = molecular target: T1, Orencia; experiment: ELISA, MBP fusion in E. coli lysate on Orencia
Protocol: (§1) 10 μL of E. coli cultured medium was added with 90 μL of PBS and 40 μL of lysis reagent (20 μL BugBuster Protein Extraction Reagent (Novagen), 20 μL Lysozyme solution 2.5 mg/mL) to lyse E. coli cells for 1 hour at room temperature. […] In parallel, antigen protein was immobilized overnight at 4° C. in 384-well plates at 100 ng/20 μL per well, and each well was washed twice with 100 μL/well of TBST, added with 100 μL/well of 5% skim milk solution (TBST) for blocking for 1 hour at room temperature, and washed twice with 100 μL/well of TBST to obtain antigen-immobilized plates. 20 μL/well of blocking-treated E. coli extract was added to the antigen-immobilized plates and gently stirred at room temperature using a plate mixer. […] The plates were washed 5 times with 100 μL/well of TBST, and binding of cyclic peptides to the antigen was detected by 20 μL/well of chromogenic substrate (0.4 mg/mL 3,3′,5,5′-Tetramethyl-benzidine, 0.01% hydrogen peroxide). After 15 minutes of reaction at room temperature, the reaction was stopped with 20 μL/well of 2N HCl, and absorbance at 450 nm was measured using a plate reader (infinite F200: TECAN) (Table 5).
(§2) An Error-Prone Library was prepared based on H12SSI-Ctla4-3-02, and Affinity Maturation selection experiments were performed. The cyclic peptide genes obtained in each round were subcloned, 94 single colonies were cultured in 96-well plates, and the CTLA-4 binding activity of each MBP-fused cyclic peptide was examined by ELISA.

Orencia [2] = molecular target: T1, Orencia; experiment: ELISA, signal on Orencia over SA
Protocol: as §1, §2

[3] = molecular target: T2, CTLA4 of the CTLA4:B7-1[Biotinylated] …; experiment: CTLA4:B7-1[Biotinylated] Inhibitor Screening Assay Kit, synthetic peptide against biotinylated B7-1
Source text: Inhibitor Screening Assay Kit (BPS Biosciences) as described above.

[4] = molecular target: T3, CTLA-4 expressed on the cell surface of …; experiment: FACS on CHO cells expressing CTLA-4, synthetic peptide

| Binder | ELISA A450 (Orencia [1]) | S/N(SA) (Orencia [2]) | IC50 [3] [µM] | EC50 [4] [µM] |
| --- | --- | --- | --- | --- |
| GGCMHPFLPILSHHFCAG (peptide, not shown: large carriers; small tags and cut ends, MBP fusion; also called #21) [C4-302mat-3-1-32] | 0.656 | 11.4 |  |  |
| GGCMHPFLPVVSHHFCGG (peptide, not shown: large carriers; small tags and cut ends, MBP fusion) [C4-302mat-1-1-24] | 0.78 | 14.7 |  |  |
| GGCMHPFLPVASHHFCGR (peptide, not shown: large carriers; small tags and cut ends, MBP fusion; also called #6) [C4-302mat-3-1-22] | 1.11 | 18.9 |  |  |
| GGCMHPYLQVVSHHFCGR (peptide, not shown: large carriers; small tags and cut ends, MBP fusion) [C4-302mat-3-1-2] | 1.45 | 21.9 |  |  |
| GGCMHPFLPVVSHHFCRG (peptide, not shown: large carriers; small tags and cut ends, MBP fusion) [C4-302mat-2-100-18] | 0.857 | 16.1 |  |  |
| GGCIHPFLQVVSHHFCGG (peptide, not shown: large carriers; small tags and cut ends, MBP fusion; also called #28) [C4-302mat-1-1-21] | 0.155 | 2.7 |  |  |
| GGCMHPFLLVVSRHFCGR (peptide, not shown: large carriers; small tags and cut ends, MBP fusion) [C4-302mat-2-100-40] | 0.204 | 3.9 |  |  |
| GGCMHPYLPVISHHFCGG (peptide, not shown: large carriers; small tags and cut ends, MBP fusion; also called #15) [C4-302mat-2-1-27] | 0.785 | 13.7 |  |  |
| GGCMHPFLPVVSRHFCGG (peptide, not shown: large carriers; small tags and cut ends, MBP fusion; also called #24) [C4-302mat-3-1-5] | 0.438 | 5.9 |  |  |
| GGCMHPFLLTVSRHFCGG (peptide, not shown: large carriers; small tags and cut ends, MBP fusion; also called #44) [C4-302mat-3-1-11] | 0.412 | 8.1 |  |  |
| GGCMHPFLPVVSRHFCGR (peptide, not shown: large carriers; small tags and cut ends, MBP fusion; also called #25) [C4-302mat-3-1-12] | 0.95 | 17.9 |  |  |
| GGCMHPFLPVTSHHFCGG (peptide, not shown: large carriers; small tags and cut ends, MBP fusion; also called #17) [C4-302mat-2-1-3] | 0.802 | 14.8 |  |  |
| GGCMHPFLQTVSHHFCGG (peptide, not shown: large carriers; small tags and cut ends, MBP fusion; also called #22) [C4-302mat-3-1-35] | 0.299 | 5.3 |  |  |
| GGCMHPFLPIASLHFCGR (peptide, not shown: large carriers; small tags and cut ends, MBP fusion; also called #20) [C4-302mat-3-1-23] | 1.21 | 19.7 |  |  |
| GDCKHPYLLTVSHHFCGR (peptide, not shown: large carriers; small tags and cut ends, MBP fusion; also called #42) [C4-302mat-3-1-25] | 0.264 | 4.3 |  |  |
| GGCMHPYLLVVSHHFCGR (peptide, not shown: large carriers; small tags and cut ends, MBP fusion; also called #40) [C4-302mat-2-100-24] | 0.227 | 4 |  |  |
| GGCMHPFLPIVSHHFCGS (peptide, not shown: large carriers; small tags and cut ends, MBP fusion; also called #18) [C4-302mat-2-100-27] | 1.29 | 25.2 |  |  |
| GGCMHPFLLVASHHFCGV (peptide, not shown: large carriers; small tags and cut ends, MBP fusion) [C4-302mat-2-1-37] | 0.12 | 2.3 |  |  |
| GGCLHPFLPIVSHHFCGR (peptide, not shown: large carriers; small tags and cut ends, MBP fusion; also called clone #10; No. #10) [C4-302mat-3-100-44] | 1.14 | 18.5 |  |  |
| GGCVHPFLQVVSHHFCGG (peptide, not shown: large carriers; small tags and cut ends, MBP fusion; also called #29) [C4-302mat-1-100-23] | 0.25 | 5.4 |  |  |
| GGCKHPYLPVASHHFCRG (peptide, not shown: large carriers; small tags and cut ends, MBP fusion; also called #14) [C4-302mat-3-1-10] | 0.586 | 10.3 |  |  |
| GGCMHPFLRIVSQHFCRR (peptide, not shown: large carriers; small tags and cut ends, MBP fusion; also called #35) [C4-302mat-2-1-24] | 0.14 | 2.4 |  |  |
| GGCKHPFLRVVSHHFCRR (peptide, not shown: large carriers; small tags and cut ends, MBP fusion; also called #34) [C4-302mat-2-1-12] | 0.51 | 8.5 |  |  |
| GGCLHPFLPVVSHHFCGD (peptide, not shown: large carriers; small tags and cut ends, MBP fusion; also called #8) [C4-302mat-2-1-2] | 1.2 | 23.5 |  |  |

| Binder | ELISA A450 (Orencia [1]) | S/N(SA) (Orencia [2]) | IC50 [3] [µM] | EC50 [4] [µM] |
| --- | --- | --- | --- | --- |
| GGCLHPFLPLVSHHFCGG (peptide, not shown: large carriers; small tags and cut ends, MBP fusion; also called #9) [C4-302mat-2-1-38] | 0.807 | 16.4 |  |  |
| GGCKHPFLPVVSHHFCGG (peptide, not shown: large carriers; small tags and cut ends, MBP fusion; also called #13) [C4-302mat-3-100-9] | 0.779 | 14.4 |  |  |
| GGCMHPFLLVVSHHFCGG (peptide, not shown: large carriers; small tags and cut ends, MBP fusion; also called original clone; Original) [H12SSI-Ctla4-3-02 (MBP fusion)] | 0.228 | 4.3 |  |  |
| GGCMHPYLLVASHHFCER (peptide, not shown: large carriers; small tags and cut ends, MBP fusion; also called #39) [C4-302mat-3-1-9] | 0.574 | 8.8 |  |  |
| GGCMHPFLPVVSHHFCGA (peptide, not shown: large carriers; small tags and cut ends, MBP fusion) [C4-302mat-3-1-48] | 0.903 | 14.6 |  |  |
| GGCMHPYLLVVSRHFCGR (peptide, not shown: large carriers; small tags and cut ends, MBP fusion; also called #41) [C4-302mat-3-1-15] | 0.351 | 5.4 |  |  |
| GSCMHPFLPVASRHFCGR (peptide, not shown: large carriers; small tags and cut ends, MBP fusion; also called #23) [C4-302mat-3-1-31] | 0.868 | 13.2 |  |  |
| GGCMHPFLPVASHHFCAG (peptide, not shown: large carriers; small tags and cut ends, MBP fusion) [C4-302mat-3-100-27] | 0.927 | 16.6 |  |  |
| GGCMHPFLPVASHHFCGG (peptide, not shown: large carriers; small tags and cut ends, MBP fusion) [C4-302mat-1-1-35] | 0.534 | 11.2 |  |  |
| GSCMHPFLLVASHHFCRG (peptide, not shown: large carriers; small tags and cut ends, MBP fusion; also called #38) [C4-302mat-2-100-33] | 0.117 | 2.3 |  |  |
| GGCMHPFLRVVSHHFCGR (peptide, not shown: large carriers; small tags and cut ends, MBP fusion; also called #33) [C4-302mat-3-1-14] | 0.985 | 15.5 |  |  |
| GGCRHPFLPIVSRHFCRG (peptide, not shown: large carriers; small tags and cut ends, MBP fusion; also called #11) [C4-302mat-3-1-45] | 0.689 | 11.2 |  |  |
| GGCMHPYLPVISHHFCGR (peptide, not shown: large carriers; small tags and cut ends, MBP fusion; also called #16) [C4-302mat-3-100-12] | 1.18 | 19.4 |  |  |
| GGCMHPFLPVVSHHFCGR (peptide, not shown: large carriers; small tags and cut ends, MBP fusion) [C4-302mat-3-100-37] | 1.17 | 18 |  |  |
| GGCMHPFLQVVSHHFCGG (peptide, not shown: large carriers; small tags and cut ends, MBP fusion; also called #27) [C4-302mat-2-100-4] | 0.545 | 9.3 |  |  |
| GGCMHPFLKIASHHFCGG (peptide, not shown: large carriers; small tags and cut ends, MBP fusion; also called #36) [C4-302mat-3-1-8] | 0.555 | 8.2 |  |  |
| GCMHPFLPIVSHHFCER (disulfide 2-15 (inferred), chemically synthesised, glycine added to the N-terminus; also called synthesized peptide (Clone No. #19)) [Gly-clone #19: GCMHPFLPIVSHHFCER] |  |  | 11.5 |  |
| CMHPFLPIVSHHFCER (disulfide 1-14 (inferred); also: form used in FACS not given here: biotinylated or N-terminal Gly) [No. #19 synthetic peptide used in FACS] |  |  |  | 0.47 |
| GGCKHPFLLIVSHHFCGR (peptide, not shown: large carriers; small tags and cut ends, MBP fusion; also called #45) [C4-302mat-3-100-39] | 0.136 | 2.3 |  |  |
| GGCMHPFLQVVSHHFCGS (peptide, not shown: large carriers; small tags and cut ends, MBP fusion; also called #26) [C4-302mat-2-1-35] | 0.904 | 17.9 |  |  |
| GGCVHPFLPVVSHHFCRG (peptide, not shown: large carriers; small tags and cut ends, MBP fusion; also called #12) [C4-302mat-3-100-20] | 0.221 | 3.7 |  |  |
| GGCMHPFLQVASHHFCGG (peptide, not shown: large carriers; small tags and cut ends, MBP fusion) [C4-302mat-2-1-40] | 0.366 | 6.9 |  |  |
| GGCMHPFLRVVSHHFCGG (peptide, not shown: large carriers; small tags and cut ends, MBP fusion; also called #32) [C4-302mat-1-1-37] | 0.665 | 14.2 |  |  |
